What was measured:
[1] = target: CsgA from E. coli (residues 21-151), without its signal sequence (E. coli) (UniProt P28307)
[2] = target: Full-length FapC (residues 25-250) from Pseudomonas sp. UK4, without its signal sequence (Pseudomonas sp. UK4)
[3] = target: CsgA from E. coli (residues 21-151), without its signal sequence (E. coli, UniProt P28307 21-151); test: cell-based or functional assay
Sequence of CsgA from E. coli (residues 21-151), without its signal sequence (P28307 21-151): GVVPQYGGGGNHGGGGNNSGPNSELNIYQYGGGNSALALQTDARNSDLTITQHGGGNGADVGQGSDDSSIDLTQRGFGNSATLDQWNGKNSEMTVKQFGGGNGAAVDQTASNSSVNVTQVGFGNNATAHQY

Sequence of CsgA from E. coli (residues 21-151), without its signal sequence (E. coli) (P28307 21-151): as above
Sequence of Full-length FapC (residues 25-250) from Pseudomonas sp. UK4, without its signal sequence (Pseudomonas sp. UK4) (P0DXF5 25-250 limits assumed): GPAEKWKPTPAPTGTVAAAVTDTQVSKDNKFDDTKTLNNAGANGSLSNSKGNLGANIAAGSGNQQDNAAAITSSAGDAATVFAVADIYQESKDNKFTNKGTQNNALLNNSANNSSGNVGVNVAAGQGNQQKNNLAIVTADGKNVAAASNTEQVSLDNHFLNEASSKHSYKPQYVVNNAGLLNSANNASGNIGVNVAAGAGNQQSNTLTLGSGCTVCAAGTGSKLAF

## DNAJB6 mutant F91L, used as pseudowildtype (from UniProt O75190 1-326) (natural protein)
[1]
  fold reduction of the primary nucleation rate constant kn of spontaneous CsgA fibrillation (ThT kinetics, Amylofit), by 0.12 μM DNAJB6 (fold reduction): 1e+07
[2]
  fold reduction of the primary nucleation rate constant kn of spontaneous FapC fibrillation (ThT kinetics, Amylofit), by 0.6 μM DNAJB6 (fold reduction): 1000

## Bri2 BRICHOS oligomer (O-Bri2) (from UniProt Q9Y287 137-231) (domain or fragment)
[1]
  fold reduction of the primary nucleation rate constant kn of spontaneous CsgA fibrillation (ThT kinetics, Amylofit), by 1 μM Bri2 oligomer (fold reduction): 100000
[2]
  fold reduction of the primary nucleation rate constant kn of spontaneous FapC fibrillation (ThT kinetics, Amylofit), by 6 μM Bri2 oligomer (fold reduction): 10

## Bri2 BRICHOS monomer (M-Bri2) (domain or fragment)
[1]
  fold reduction of the primary nucleation rate constant kn of spontaneous CsgA fibrillation (ThT kinetics, Amylofit), by 1 μM Bri2 monomer (fold reduction): 1000
[2]
  fold reduction of the primary nucleation rate constant kn of spontaneous FapC fibrillation (ThT kinetics, Amylofit), by 6 μM Bri2 monomer (fold reduction): 40

B1: CsgC (natural protein, UniProt P52107 9-110, looked up)
chain: ALSSQITFNTTQQGDVYTIIPEVTLTQSCLCRVQILSLREGSSGQSQTKQEKTLSLPANQPIALTKLSLNISPDDRVKIVVTVSDGQSLHLSQQWPPSSEKS
modifications: Alexa Fluor 546 label (peptide array only)
[3]
  fold reduction of the primary nucleation rate constant kn of spontaneous CsgA fibrillation (ThT kinetics, Amylofit), by 1 μM CsgC: ~100000 fold reduction

B2: S100A9 (natural protein, human, UniProt P06702 1-114, looked up)
chain: MTCKMSQLERNIETIINTFHQYSVKLGHPDTLNQGEFKELVRKDLQNFLKKENKNEKVIEHIMEDLDTNADKQLSFEEFIMLMARLTWASHEKMHEGDEGPGHHHKPGLGEGTP
modifications: Alexa Fluor 546 label (peptide array only)
[3]
  fold reduction of the primary nucleation rate constant kn of spontaneous CsgA fibrillation (ThT kinetics, Amylofit), at 4 μM S100A9: 20 fold reduction
[2]
  fold reduction of the primary nucleation rate constant kn of spontaneous FapC fibrillation (ThT kinetics, Amylofit), at 50 μM S100A9 (fold reduction): 6

From PMC8729806, “Chaperones mainly suppress primary nucleation during formation of functional amyloid required for bacterial biofilm formation†” (Chemical Science, 2021)
